Results reported in US20240190968A1 (HEFEI TG IMMUNOPHARMA, published 2024).

B1: humanized antibody h12G4 (antibody, human IgG1, kappa, V domains shown)
VH: EVQLVQSGAEVKKPGASVKVSCKASGYTFTDYNMDWVRQAPGKGLEWIGDINPNNGGTLYNQKFRGRVTLTVDKSISTAYMELSRLRSDDTAVYYCARSEVFYGNYADYWGQGTTVTVSS
VL: DIVLTQTPLSLSVTPGQPASISCKASQSVDYDGDSYMNWYLQKPGQPPQLLIYAASTLHSGVPDRFSGSGSGTDFTLKISRVEAEDVGVYYCQQSKEDPRTFGQGTKLEIKR
notes: also called humanized 12G4
B2: murine antibody 12F5 (antibody, mouse IgG2a, kappa, V domains shown)
VH: QVQLQQSGAELVKPGASVKLSCKASGYTFTSYYMYWVKQRPGQGLEWIGEINPSNGGTNFNEKFKSKATLTVDKSSSTAYMQLSSLTSEDSAVYYCTRTLYYGNDWYFDVWGAGTTVTVSS
VL: QIVLTQSPAIMSASPGEKVTMTCSASSSVNYMHWYQQKSGTSPKRWIYDTSKLASGVPARFSGSGSGTSYSLTISSMEAEDAATYYCQQWSSNPVTFGAGTKLELKR
notes: also called murine 12F5; B7H6 murine 12F5 antibody
B3: murine antibody 12G4 (antibody, mouse IgG2a, kappa, V domains shown)
VH: EVLLQQSGPEVVKPGASVKITCKASGYTFTDYNMDWVKQSHGKSLEWIGDINPNNGGTLYNQKFRGRVTLIVDKSSSTAYMELRSLTSDDTAVYYCARSEVFYGNYADYWGQGTTLTVSS
VL: DIVLTQSPVSLAVPLGQRATISCKASQSVDYDGDSYMNWYQQKPGQPPKLLIYAASTLHSGIPVRFSGSGSGTDFTLNIHPVEEEDAASYYCQQSKEDPRTFGGGTKLEIKR
notes: also called murine 12G4
B4: humanized antibody h12F5 (antibody, human IgG1, kappa, V domains shown)
VH: EVQLVQSGAEVKKPGASVKVSCKASGYTFTSYYMYWVRQAPGQGLEWIGEINPSNGGTNFNEKFKSRVTLTVDKSISTAYMELSRLRSDDTAVYYCTRTLYYGNDWYFDVWGQGTTVTVSS
VL: EIVLTQSPDFQSVTPKEKVTITCSASSSVNYMHWYQQKPDQSPKRLIYDTSKLASGVPSRFSGSGSGTDYTLTINSLEAEDAATYYCQQWSSNPVTFGQGTKLEIKR
notes: also called humanized 12F5

Key:
[1] = biological target: T1, recombinant B7H6 extracellular region Fc fusion protein (human); experiment: ELISA, B7H6-Fc coated at 1 ug/mL, HRP mouse anti-human IgG (Fab-specific) secondary antibody, OD450
T1 construct: also called B7H6-Fc; B7H6-Fc fusion protein
Experimental: The ELISA assay was used to detect the binding characteristics of the humanized B7H6 antibody. The B7H6 extracellular region Fc fusion protein (B7H6-Fc) described above was coated into a 96-well plate. The signal strength after antibody addition was used to determine the binding characteristics of antibodies and B7H6.
The B7H6-Fc fusion protein (amino acid sequence as set forth in SEQ ID NO. 22) was diluted to 1 μg/mL with PBS buffer and added to a 96-well plate in a volume of 100 μL/well and left overnight at 4° C. The PBS buffer solution was sucked off from the 96-well plate. The plate was washed 6 times with PBST (pH 7.2, PBS containing 0.1% Tween 20) buffer solution. 200 μL/well PBS/10% BSA was added and incubated at 37° C. for 2 hours for blocking. The blocking solution was removed. The plate was washed 6 times with PBST. B7H6 antibody to be tested which diluted with PBST/0.05% BSA to an appropriate concentration was added at 100 µL/well, and incubated at 37° C. for 1 h. The reaction system was removed. The plate was washed 6 times with PBST. HRP (horseradish peroxidase)-labeled mouse anti-human IgG (Fab-specific) secondary antibody (Sigma) was diluted with PBST/0.05% BSA at 100 μL/well and incubated for 1 h at 37° C. The plate was washed 6 times with PBST, and 80 μL/well TMB (tetramethylbenzidine) was added. […] The absorbance at […] was read with a microplate reader.

[2] = biological target: T2, recombinant Cynomolgus monkey B7H6 extracellular region Fc fusion protein (Cynomolgus monkey); experiment: ELISA, cynoB7H6-Fc coated at 1 ug/mL, HRP mouse anti-human IgG (Fab-specific) secondary antibody, OD450
T2 construct: also called cynoB7H6-Fc; cynoB7H6-Fc fusion protein
T2 sequence (chain, as listed by the source limits assumed): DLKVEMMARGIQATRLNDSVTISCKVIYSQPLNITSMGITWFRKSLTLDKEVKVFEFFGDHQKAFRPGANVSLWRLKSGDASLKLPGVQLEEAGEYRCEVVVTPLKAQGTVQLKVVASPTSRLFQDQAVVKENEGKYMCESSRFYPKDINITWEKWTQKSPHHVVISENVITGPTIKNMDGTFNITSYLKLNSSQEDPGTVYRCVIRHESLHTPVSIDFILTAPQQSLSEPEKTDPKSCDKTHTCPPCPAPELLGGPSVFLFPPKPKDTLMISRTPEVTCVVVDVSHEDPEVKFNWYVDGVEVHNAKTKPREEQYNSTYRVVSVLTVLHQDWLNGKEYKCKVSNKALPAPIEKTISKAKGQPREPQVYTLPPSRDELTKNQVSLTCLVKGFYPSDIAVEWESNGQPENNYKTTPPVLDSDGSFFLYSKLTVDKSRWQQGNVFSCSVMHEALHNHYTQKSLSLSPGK
Experimental: The ELISA assay was used to detect the binding characteristics of the humanized B7H6 antibody. The Cynomolgus monkey B7H6 extracellular Fc fusion protein (cynoB7H6-Fc) was coated into a 96-well plate. The signal strength after antibody addition was used to determine the binding characteristics of the antibody and monkey B7H6.
The cynoB7H6-Fc fusion protein (amino acid sequence as set forth in SEQ ID NO. 23) was diluted to 1 μg/mL with PBS buffer and added to a 96-well plate in a volume of 100 μL/well and left overnight at 4° C. The PBS buffer solution was sucked off from the 96-well plate. The plate was washed 6 times with PBST (pH 7.2, PBS containing 0.1% Tween 20) buffer solution. 200 μL/well of PBS/10% BSA was added and incubated at 37° C. for 2 hours for blocking. The blocking solution was removed. The plate was washed 6 times with PBST. B7H6 antibody to be tested which was diluted with PBST/0.05% BSA to an appropriate concentration was added at 100 µL/well, and incubated at 37° C. for 1 h. The reaction system was removed. The plate was washed 6 times with PBST. HRP (horseradish peroxidase)-labeled mouse anti-human IgG (Fab-specific) secondary antibody (Sigma) was diluted with PBST/0.05% BSA at 100 μL/well and incubated for 1 h at 37° C. […] The absorbance at […] was read with a microplate reader.

[3] = biological target: T3, B7H6 protein overexpressed in HL60 cells (human, UniProt Q68D85 25-454); experiment: flow cytometry on HL60-B7H6 cells, Alexa-647 mouse anti-human IgG-Fc secondary antibody, binding ratio (%)
T3 construct: Full-length entry expressed from a lentiviral vector; also called HL60-B7H6
T3 sequence: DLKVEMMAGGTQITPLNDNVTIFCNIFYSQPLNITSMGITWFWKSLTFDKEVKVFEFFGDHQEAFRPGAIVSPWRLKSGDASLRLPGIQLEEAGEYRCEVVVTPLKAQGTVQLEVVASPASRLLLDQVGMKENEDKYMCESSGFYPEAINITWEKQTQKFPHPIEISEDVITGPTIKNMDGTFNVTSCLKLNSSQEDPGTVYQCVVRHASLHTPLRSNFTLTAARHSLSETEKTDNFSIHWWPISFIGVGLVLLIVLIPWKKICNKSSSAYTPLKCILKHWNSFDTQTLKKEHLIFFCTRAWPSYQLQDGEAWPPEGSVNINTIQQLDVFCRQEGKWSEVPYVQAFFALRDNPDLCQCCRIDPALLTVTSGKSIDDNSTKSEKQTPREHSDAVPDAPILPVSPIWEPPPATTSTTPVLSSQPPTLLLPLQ
Experimental: The flow cytometry assay was used to detect the binding characteristics of the B7H6 antibody. The B7H6 protein (HL60-B7H6) was overexpressed in HL60 cells (ATCC No. CCL-240) (as shown in Example 3), and the signal strength after antibody addition was used to determine the binding characteristics of the antibody and B7H6.
HL60-B7H6 cells were diluted to 2×10⁶/mL with PBS and added to a 1.5 mL EP tube in a volume of 100 μL/tube. 10 μL/tube of mouse serum was added thereto and was blocked at 4° C. for 30 min. The humanized B7H6 antibody was added at 1 μg/tube and incubated for 30 min at 4° C. The EP tube was added with 1 mL of PBS and centrifuged at 3500 rpm at 4° C. for 5 min. The supernatant was discarded and the precipitate was washed once more with PBS. After centrifugation, the supernatant was discarded. The cells were resuspended with 100 μL/tube of PBS, 1 μL/tube of Alexa-647-labeled mouse anti-human IgG-Fc secondary antibody (Biolegend) was added thereto, and incubated at 4° C., under the condition of avoiding light, for 30 min. The cell-containing precipitate was washed twice with PBS and the supernatant was discarded after centrifugation. The cells were resuspended with 200 μL/tube of PBS and detected by flow cytometry.

[4] = biological target: T1, recombinant B7H6 extracellular region …; experiment: ELISA, B7H6-Fc coated at 1 ug/mL, HRP anti-mouse secondary antibody, OD450
Experimental: The ELISA assay was used to detect the binding characteristics of the B7H6 antibody. The B7H6 extracellular region Fc fusion protein (B7H6-Fc) described above was coated into a 96-well plate. The signal strength after antibody addition was used to determine the binding characteristic of the antibody and B7H6.
The B7H6-Fc fusion protein (amino acid sequence as set forth in SEQ ID NO. 22) was diluted to 1 μg/mL with PBS buffer and added to a 96-well plate in a volume of 100 μL/well and left overnight at 4° C. The PBS buffer solution was sucked off from the 96-well plate. The plate was washed 6 times with PBST (pH 7.2, PBS containing 0.1% Tween 20) buffer solution. 200 μL/well PBS/10% BSA was added and incubated at 37° C. for 2 hours for blocking. The blocking solution was removed. The plate was washed 6 times with PBST. 100 μL/well B7H6 antibody to be tested was diluted to an appropriate concentration with PBST/0.05% BSA, and incubated at 37° C. for 1 h. The reaction system was removed. The plate was washed 6 times with PBST. HRP (horseradish peroxidase)-labeled anti-mouse antibody secondary antibody was diluted with PBST/0.05% BSA at 100 μL/well and incubated for 1 h at 37° ° C. The plate was washed 6 times with PBST and 80 μL/well TMB (tetramethylbenzidine) was added. […] The absorbance at […] was read with a microplate reader.

[5] = biological target: T1, recombinant B7H6 extracellular region …; experiment: SPR, Biacore T200, B7H6-Fc amine-coupled to CM5 chip, antibody injected, 1:1 Langmuir model; murine 12F5
Experimental: (§1) The Biacore method is widely-recognized as an objective method for detecting the mutual affinity and binding kinetics of proteins. The affinity and binding kinetics of the B7H6 antibody of the present disclosure are analyzed and characterized through Biacore T200.
(§2) The B7H6 extracellular segment Fc fusion protein (B7H6-Fc) was covalently attached to a CM5 (GE) chip using standard amino coupling methods. A series of concentration gradients of B7H6 antibody diluted in PBS were then injected with each cycle and regenerated with 10 mM NaOH solution. The antigen-antibody binding kinetics were traced for 3 minutes and the dissociation kinetics were traced for 10 minutes, and the resulting data were analyzed by a 1:1 (Langmuir) binding model using GE's BIAevaluation software.

[6] = biological target: T3, B7H6 protein overexpressed in HL60 cells; experiment: flow cytometry on HL60-B7H6 cells, Alexa-647 goat anti-mouse secondary antibody, binding ratio (%)
Experimental: The flow cytometry assay was used to detect the binding characteristics of B7H6 antibody and to overexpress B7H6 protein (HL60-B7H6, SEQ ID NO. 21; SEQ ID NO. 54) in HL60 cells (ATCC NO. CCL-240). The expression vector is pLVX-EF1a-B7H6-IRES-ZsGreen, and the signal strength after antibody addition is used to determine the binding characteristics of the antibody and B7H6.
HL60-B7H6 cells were diluted to 2×10⁶/mL with PBS and were added to a 1.5 ml EP tube at 100 μL/tube. Goat serum at 10 μL/tube was added thereto and was blocked at 4° C. for 30 min. The B7H6 antibody was added at 1 μg/tube and incubated for 30 min at 4° C. The EP tube was added with 1 mL of PBS and centrifuged at 3500 rpm at 4° C. for 5 min. The supernatant was discarded and the precipitate was washed once more with PBS. After centrifugation, the supernatant was discarded, and the cells were resuspended with 100 μl/tube of PBS, and 0.1 μL/tube of goat anti-mouse antibody secondary antibody (Invitrogen) labeled with Alexa-647 was added thereto, and incubated at 4° C., under the condition of avoiding light, for 30 min. The cell-containing precipitate was washed twice with PBS and the supernatant was discarded after centrifugation. The cells were resuspended with 200 μL/tube of PBS and detected by flow cytometry.

[7] = biological target: T1, recombinant B7H6 extracellular region …; experiment: SPR, Biacore T200, B7H6-Fc amine-coupled to CM5 chip, antibody injected, 1:1 Langmuir model; murine 12G4
Experimental: as §1, §2

Binder | EC50 (read off the curve) [1] [µg/mL] | binding result [2] | EC50 (read off the curve) [3] [µg/mL] | EC50 (read off the curve) [4] [µg/mL] | Kd [5] [nM] | EC50 (read off the curve) [6] [µg/mL] | Kd [7] [nM]
B1 | ~0.05 | binds | ~0.05 | – | – | – | –
B2 | – | – | – | ~0.03 | 2.2 | ~0.006 | –
B3 | – | – | – | ~0.03 | – | ~0.01 | 0.15
B4 | ~0.02 | – | ~0.03 | – | – | – | –
